Results on one substance are retold here after patent EP0797662B1.

For the experiment, the target named is extracellular domain of the aFGF receptor (sFGFR). As to the kind of experiment: ITC, aFGF and the extracellular domain of its receptor.

Chain of aFGF (P05230 16-155): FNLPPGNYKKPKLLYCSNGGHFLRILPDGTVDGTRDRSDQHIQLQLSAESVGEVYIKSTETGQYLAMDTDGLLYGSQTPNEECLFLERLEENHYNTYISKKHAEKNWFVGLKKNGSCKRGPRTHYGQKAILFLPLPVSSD

aFGF came in with a Kd of 500 nM.
